Assay results taken from patent US12123876B2, “Antibody binding to HEG1 and use of the antibody for detection and treatment of mesothelioma” (Kanagawa Prefectural Hospital Organization, priority 2016, dated 2024).

Tested on: HEG1 protein (purified from ACC-MESO4 or recombinant soluble HEG1)
Test: Western blot / dot blot reactivity of antibodies with HEG1 protein
Format: binding, human
Conditions: Western blot, anti-human intelectin antibody-HRP as secondary antibody
Description: A massive amount of ACC-MESO4 was cultured, and purification of an antigen from the cell lysate was performed. Cells from 240 10-cm dishes were solubilized with 50 mM Tris buffer (pH 8.0) containing 1% TRITON™ X-100 (detergent), 1% CHAPS, 1 mM EDTA, 50 mM NaCl, and protease inhibitor (Complete, Roche Life Science), and then centrifuged. The resulting supernatant was dialyzed with 20 mM acetate buffer (pH 5.0) at 4° C. for 18 hours to afford an acidic precipitate. The precipitate was extracted with 20 mM Tris buffer (pH 7.2) containing 0.1% TWEEN® 20 (polyethylene glycol sorbitan monolaurate, polyoxyethylenesorbitan monolaurate) and 150 mM NaCl and centrifuged, and the resulting supernatant was concentrated by using an Amicon Ultra-15, 100 kDa (Merck Millipore) and subjected to solution exchange with 20 mM Tris buffer (pH 8.0) containing 6 M guanidine hydrochloride. To the concentrated solution, tris(2-carboxyethyl)phosphine hydrochloride with a final concentration of 10 mM was added, and the resultant was heated at 60° C. for 30 minutes, and iodoacetamide with a final concentration of 40 mM was then added thereto, and reacted at room temperature for 3 hours. The reaction solution was subjected to gel filtration chromatography (SUPEROSE® 6 INCREASE (prepacked column) 10/300 GL (GE Healthcare)) in 20 mM Tris buffer (pH 8.0) containing 6 M guanidine hydrochloride and 0.05% TWEEN® 20 (polyethylene glycol sorbitan monolaurate, polyoxyethylenesorbitan monolaurate), and fractions positive for dot blot were collected. The sample was dialyzed with 25 mM phosphate buffer (pH 7.0) containing 4 M urea and 0.05% TWEEN® 20 (polyethylene glycol sorbitan monolaurate, polyoxyethylenesorbitan monolaurate) at room temperature overnight, and applied to a Mono Q 5/50 GL (GE Healthcare). The column was washed with 25 mM phosphate buffer (pH 7.0) containing 4 M urea and 0.05% TWEEN® 20 (polyethylene glycol sorbitan monolaurate, polyoxyethylenesorbitan monolaurate), and thereafter elution was performed with an NaCl salt concentration gradient of 0 to 1 M. Fractions strongly positive for dot blot were collected, and dialyzed with 25 mM phosphate buffer (pH 7.2) containing 150 mM NaCl and 0.05% TWEEN® 20 (polyethylene glycol sorbitan monolaurate, polyoxyethylenesorbitan monolaurate) at room temperature overnight, and applied to 1 mL of WGA-SEPHAROSE® (wheat germ agglutinin-crosslinked, beaded-form of agarose) (J-OIL MILLS, Inc.). After washing with buffer, elution was performed with 25 mM phosphate buffer (pH 7.2) containing 0.2 M N-acetylglucosamine, 150 mM NaCl, and 0.05% TWEEN® 20 (polyethylene glycol sorbitan monolaurate, polyoxyethylenesorbitan monolaurate), and the eluent was concentrated with a Centricon (YM-30) (Millipore). Gel filtration chromatography (SUPEROSE® 6 INCREASE (prepacked column) 10/300 GL (GE Healthcare)) was performed in 25 mM phosphate buffer (pH 7.2) containing 3 M GdnHCI and 0.5% CHAPS, and fractions strongly positive for dot blot were dialyzed with 20 mM NH4HCO3 containing 0.5% CHAPS at room temperature overnight to afford a purified antigen.
The dot blot was performed as follows. A PVDF membrane (Immobilon-P, Merck Millipore) was soaked in methanol, and then washed and impregnated with pure water. The hydrophilized PVDF membrane was placed on a filter paper containing water to avoid air inclusion, removed of excessive moisture, and soaked with 1 to 5 μL of the sample in dots fed by a micropipette. After the membrane was dried at room temperature overnight, the membrane was hydrophilized again with methanol and pure water, and blocked with 20 mM Tris buffer (pH 7.4) containing 5% skim milk, 0.1% TWEEN® 20 (polyethylene glycol sorbitan monolaurate, polyoxyethylenesorbitan monolaurate), and 150 mM NaCl (blocking buffer) at room temperature for 1 hour. […]

B1: intelectin-fused antibody: VH and CH1 of SKM9-2 H chain fused to human intelectin positions 19-313, co-expressed with SKM9-2 L chains (protein)
chain: QVQLQQPGAELVRPGASVKLSCKASGFSFTTYWITWVKQRPGQGLEWIGMIHPSDSETRLSQTFKDKATLTVDKSSNTAYMQFSSPTSEDSAVYYCVRDFDVWGAGTTVTVSSAKTTPPSVYPLAPGSAAQTNSMVTLGCLVKGYFPEPVTVTWNSGSLSSGVHTFPAVLQSDLYTLSSSVTVPSSTWPSETVTCNVAHPASSTKVDKKIVPRDCGTDEANTYFKEWTCSSSPSLPRSCKEIKDECPSAFDGLYFLRTENGVIYQTFCDMTSGGGGWTLVASVHENDMRGKCTVGDRWSSQQGSKADYPEGDGNWANYNTFGSAEAATSDDYKNPGYYDIQAKDLGIWHVPNKSPMQHWRNSALLRYRTDTGFLQTLGHNLFGIYQKYPVKYGEGKCWTDNGPVIPVVYDFGDAQKTASYYSPYGQREFTAGFVQFRVFNNERAANALCAGMRVTGCNTEHHCIGGGGYFPEASPQQCGDFSGFDWSGYGTHVGYSSSREITEAAVLLFYR
light: DVLMTQTPLSLPVSLGDQASISCRSSQNIVHNNGNTYLGWYLQKPGQSPKLLIFKVSNRFSGVPDRFSGSGSGTDFTLKISRVEAEDLGVYYCFQGSHIPRTFGGGTRLEIKRADAAPTVSIFPPSSEQLTSGGASVVCFLNNFYPKDINVKWKIDGSERQNGVLNSWTDQDSKDSTYSMSSTLTLTKDEYERHNSYTCEATHKTSTSPIVKSFNRNEC
For B1, the “Recognition of glycosylated HEG1 protein” value was “recognized the glycosylated HEG1 protein” and the “Recognition of glycosylated HEG1 protein” value (listed as protein complex including VH regions and CH1 regions of SKM9-2 antibody fused to) was “allows detection of HEG1 protein”.
